In publication PMC10560217, “Structural conservation of insulin/IGF signalling axis at the insulin receptors level in Drosophila and humans” (Nature Communications, 2023):

Target: the molecule itself
Assay: cryo-EM structure; equal volumes of 10 uM dmIR-ECD and 50 uM DILP5 (five-molar hormone excess) in 50 mM Tris, 150 mM NaCl, pH 7.4; reconstruction at 4.0 A

B1: Drosophila insulin receptor ectodomain (dmIR-ECD) (domain or fragment, Drosophila melanogaster, UniProt P09208 264-1309, looked up)
chain: LPAHQQHLLHNDIADGLDKTALSVSGTQSRWTRSESNPTMRLSQNVKPCKSMDIRNMVSHFNQLENCTVIEGFLLIDLINDASPLNRSFPKLTEVTDYIIIYRVTGLHSLSKIFPNLSVIRGNKLFDGYALVVYSNFDLMDLGLHKLRSITRGGVRIEKNHKLCYDRTIDWLEILAENETQLVVLTENGKEKECRLSKCPGEIRIEEGHDTTAIEGELNASCQLHNNRRLCWNSKLCQTKCPEKCRNNCIDEHTCCSQDCLGGCVIDKNGNESCISCRNVSFNNICMDSCPKGYYQFDSRCVTANECITLTKFETNSVYSGIPYNGQCITHCPTGYQKSENKRMCEPCPGGKCDKECSSGLIDSLERAREFHGCTIITGTEPLTISIKRESGAHVMDELKYGLAAVHKIQSSLMVHLTYGLKSLKFFQSLTEISGDPPMDADKYALYVLDNRDLDELWGPNQTVFIRKGGVFFHFNPKLCVSTINQLLPMLASKPKFFEKSDVGADSNGNRGSCGTAVLNVTLQSVGANSAMLNVTTKVEIGEPQKPSNATIVFKDPRAFIGFVFYHMIDPYGNSTKSSDDPCDDRWKVSSPEKSGVMVLSNLIPYTNYSYYVRTMAISSELTNAESDVKNFRTNPGRPSKVTEVVATAISDSKINVTWSYLDKPYGVLTRYFIKAKLINRPTRNNNRDYCTEPLVKAMENDLPATTPTKKISDPLAGDCKCVEGSKKTSSQEYDDRKVQAGMEFENALQNFIFVPNIRKSKNGSSDKSDGAEGAALDSNAIPNGGATNPSRRRRDVALEPELDDVEGSVLLRHVRSITDDTDAFFEKDDENTYKDEEDLSSNKQFYEVFAKELPPNQTHFVFEKLRHFTRYAIFVVACREEIPSEKLRDTSFKKSLCSDYDTVFQTTKRKKFADIVMDLKVDLEHANNTESPVRVRWTPPVDPNGEIVTYEVAYKLQKPDQVEEKKCIPAADFNQTAGYLIKLNEGLYSFRVRANSIAGYGDFTEVEHIKVEPPPSYA
modifications: N-glycosylation at Asn606 (traces in the cryoEM reconstruction)
notes: a starting methionine was added in front; codon optimised; Asn335 is the first residue seen in the maps; Described as an (alpha-beta)2 homodimer; each protomer comes from one expressed precursor chain (alpha and beta subunits), protomers linked by disulfides; Mass used for ITC 233538 g/mol (the dimer); also called dmIR ectodomain; source: Sf9 cells, baculovirus, secreted into conditioned media, …
- stoichiometry N: 2
